Here are results for one molecule from paper PMC5452030.

Experiment in all cases: SPR
A general note: SPR reads the build-up and loss of mass on a sensor chip optically.

Assay [1] deals with human ApoER2 ECD-BAS H96A/H99A (LA2 mutant) (human).
Assay [2] addresses human ApoER2 ECD-BAS E107Q (LA2 mutant) (human).
The target in assay [3] is human ApoER2 ECD-BAS H96K/H99K (LA2 mutant) (human).
In assay [4] the target is human ApoER2 ECD-BAS D68N (LA1 mutant) (human).
Assay [5] has as its target human ApoER2 ECD-BAS H96K/H99K (LA2 mutant) (human). The source holds these as a separate data set.

Where two headings read alike, the source gives them in different places.

B1: mouse reelin R56 fragment (fifth and sixth reelin repeats), wild type, for SPR (domain or fragment)
chain: DGNNLNNPVLLLDTFDFGPREDNWFFYPGGNIGLYCPYSSKGAPEEDSAMVFVSNEVGEHSITTRDLSVNENTIIQFEINVGCSTDSSSADPVRLEFSRDFGATWHLLLPLCYHSSSLVSSLCSTEHHPSSTYYAGTTQGWRREVVHFGKLHLCGSVRFRWYQGFYPAGSQPVTWAIDNVYIGPQCEEMCYGHGSCINGTKCICDPGYSGPTCKISTKNPDFLKDDFEGQLESDRFLLMSGGKPSRKCGILSSGNNLFFNEDGLRMLVTRDLDLSHARFVQFFMRLGCGKGVPDPRSQPVLLQYSLNGGLSWSLLQEFLFSNSSNVGRYIALEMPLKARSGSTRLRWWQPSENGHFYSPWVIDQILIGGNISGNTVLEDDFSTLDSRKWLLHPGGTKMPVCGSTGDALVFIEKASTRYVVTTDIAVNEDSFLQIDFAASCSVTDSCYAIELEYSVDLGLSWHPLVRDCLPTNVECSRYHLQRILVSDTFNKWTRITLPLPSYTRSQATRFRWHQPAPFDKQQTWAIDNVYIGDGCLDMCSGHGRCVQGSCVCDEQWGGLYCDEPETSLPTQLKDNFNRAPSNQNWLTVSGGKLSTVCGAVASGLALHFSGGCSRLLVTVDLNLTNAEFIQFYFMYGCLITPSNRNQGVLLEYSVNGGITWNLLMEIFYDQYSKPGFVNILLPPDAKEIATRFRWWQPRHDGLDQNDWAIDNVLIS
Regarding B1, the Kd (usually the concentration at which binding is half-saturated) in assay [1] was 120 nM; in assay [2], 38 nM; in assay [3], 490 nM; in assay [4], greater than 2800 nM; in assay [5] it was 45 nM.
